Source: PMC7596504, “Molecular mechanism of the MORC4 ATPase activation” (Nature Communications, 2020)

Columns and labels:
[1] = test system: MORC4 ATPaseCW (Homo sapiens); assay: fluorescence polarization; details: EMSA DNA: 20 mM Tris-HCl pH 7.5, 150 mM NaCl, 2.5 mM MgCl2, 2 mM DTT, on ice; EMSA NCP: 25 mM Tris-HCl pH 7.5, 75 mM NaCl, 0.005% Tween 20, 10% glycerol, 4 C …
[2] = test system: MORC4 ATPase domain (Homo sapiens); assay: fluorescence polarization; details: EMSA DNA: 20 mM Tris-HCl pH 7.5, 150 mM NaCl, 2.5 mM MgCl2, 2 mM DTT, on ice; EMSA NCP: 25 mM Tris-HCl pH 7.5, 75 mM NaCl, 0.005% Tween 20, 10% glycerol, 4 C …
LexA = assay: FRET; details: EMSA DNA: 20 mM Tris-HCl pH 7.5, 150 mM NaCl, 2.5 mM MgCl2, 2 mM DTT, on ice, EMSA NCP: 25 mM Tris-HCl pH 7.5, 75 mM NaCl, 0.005% Tween 20, 10% glycerol, 4 C …
Gal4 DNA-binding domain = assay: FRET; details: EMSA DNA: 20 mM Tris-HCl pH 7.5, 150 mM NaCl, 2.5 mM MgCl2, 2 mM DTT, on ice, EMSA NCP: 25 mM Tris-HCl pH 7.5, 75 mM NaCl, 0.005% Tween 20, 10% glycerol, 4 C …

Substance: NCP147
- K half [1]: 400 nM
- K half [2]: 2300 nM

Substance: NCP147 LexA
- K half (LexA; 1 uM MORC4 ATPaseCW): 2400 nM
- K half (LexA; no MORC4): 900 nM

Substance: NCP207
- K half [1]: 200 nM
- K half [2]: 500 nM

Substance: NCP252 Gal4
- K half (Gal4 DNA-binding domain; no MORC4): 20 nM
- K half (Gal4 DNA-binding domain; saturating MORC4 ATPaseCW, 0.3 mM ATP): 100 nM
- K half (Gal4 DNA-binding domain; saturating MORC4 ATPaseCW, no ATP): 40 nM
